This is an account of results in the supplement of paper PMC9170038.

The test system of the series is MS2 coat protein. The experiment in a line: apparent KD of MS2 coat protein; higher = weaker reporter binding. The note with it: Eterna round: R101. The method, then: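 RNA-MaP: designed FMN/MS2 RNA switches (84 nt design region) are transcribed on-chip within common flanks and titrated with SNAP-549-labelled MS2 coat protein (about 1-3000 nM) in 100 mM Tris pH 7.5, 80 mM KCl, 4 mM MgCl2, without or with 200 uM FMN. Median apparent KD per design; activation ratio = KD,OFF / KD,ON.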

With “AAUAAUCUUUAAGGAUAUCAGUGGCAAAGCCACUGAGAAGGUGAGGAUCACCCAUCUACGUGACCCUGGAAACAGGGUCACGAA [#SharedSequence - ExNG1-12] (puzzle (switch architecture): Exclusion NG 1)”, the “apparent KD of MS2 coat protein” value is, setting by setting: (input ligand: FMN 200 uM) 84.6 nM; (input ligand: none) 66.7 nM. Take “ACACAUGAGGAUCACCCAUGUAGCUGGCGUCUGCGCCAGCCACAGGAUAUACGGUAACACAAACCGUAGAAGGGUGAUAAACAC [Inerre] (puzzle (switch architecture): Same State NG 3)”: the “apparent KD of MS2 coat protein” value is 54.5 nM (input ligand: FMN 200 uM) and 113 nM (input ligand: none). On the same counts, the results for “ACACGUCGUGAGAAGGAGGAUCACCCUUUCGAAAGAAAUAGCCACCGUGAAAACGGUGGCAAAUCUUAGGAUAUCACGACGUGA [#SharedSequence - IExNG2: 5] (puzzle (switch architecture): Inverted Exclusion NG 2)” are 189 nM and 189 nM.

In the case of “AGAAACUACGAGAAGGACAUGUGGUCCUUCGGGAAAAUGAGGAUCACCCAUGUAGGAUAUCGUAGUUUCAGGAUCGUGAGAUCA [salish99_ISLExNG1_022 #HINGE] (puzzle (switch architecture): Inverted Small Loop Exclusion NG 1)”, the “apparent KD of MS2 coat protein” value turned out to be 51.1 nM (input ligand: FMN 200 uM) and 69.2 nM (input ligand: none). On the same counts, the results for “AGAGCUGCUCAGAAGGAGGAUCACCCUUUCGAAAGAAAGACGGAGGCUGAAAAGCCUCCGAAAUUCUAGGAUAUGAGCAGCUCA [#SharedSequence - IExNG2: 1] (puzzle (switch architecture): Inverted Exclusion NG 2)” are 411 nM and 204 nM. With “AGGAGGAAUGUAGGAUAUAUAUAUAUAUAUAGACAAAGUGUAUAUAUAUAUAUAGAAGGACAUGAGGAUCACCCAUGUUUCCCU [#Lowering the energy 13] (puzzle (switch architecture): Small Loop Exclusion NG 1)”, the “apparent KD of MS2 coat protein” value (input ligand: FMN 200 uM) was found to be 6.87 nM and the “apparent KD of MS2 coat protein” value (input ligand: none) came out at 8.11 nM.

As to “AGGUAUACUUAGAAGGGCUCCAGCAAAGCUGGAGCAGGAUAUGAGGAUCACCCAUAUCACCUGACGGUCGAAACGACCGUCAGG [#SharedSequence - IExNG1: 8-1] (puzzle (switch architecture): Inverted Exclusion NG 1)”, the “apparent KD of MS2 coat protein” value was determined as 26.8 nM (input ligand: FMN 200 uM) and 13.2 nM (input ligand: none). Regarding “AGGUAUACUUAGAAGGGCUCCAGCAAAGCUGGAGCAGGAUAUGAGGAUCACCCAUGUCACCUGACGGUCGAAACGACCGUCAGG [#SharedSequence - IExNG1: 9-1] (puzzle (switch architecture): Inverted Exclusion NG 1)”, the “apparent KD of MS2 coat protein” value came to 76.4 nM (input ligand: FMN 200 uM) and 22.8 nM (input ligand: none). For the sequence “AGGUGAGCUCGAUGGCGACAUGAGGAUCACCCAUGUACGAUCAGAAGGGCUCGGGCAAGAAGUGGGCAGGAUAUGGUCGGUGCC [Xeadion] (puzzle (switch architecture): Inverted Exclusion NG 3)”, the “apparent KD of MS2 coat protein” value (input ligand: FMN 200 uM) was 4.5 nM. With “CGCUAUGACAUGAGGAUCACCCAUGUAUACAUGGGAAUGACGUAGGAUAUGCAGAAGAUUAAAGUGCAGAAGGACGGCUUAGCG [JR #DistanceClose #Static #NP SSNG3 Sub064] (puzzle (switch architecture): Same State NG 3)”, the “apparent KD of MS2 coat protein” value (input ligand: FMN 200 uM) is 1020 nM and the “apparent KD of MS2 coat protein” value (input ligand: none) stood at 830 nM.

Take “GACUGCAGGAUAACAACCUGCAGUCACUUCUGAGGAUCACCCAGAAGGGCUGAGGUAAUACCUCAGCAGGAUAUGGAGUGAAAA [#SharedSequence IExNG# - 5] (puzzle (switch architecture): Inverted Exclusion NG 3)”: the “apparent KD of MS2 coat protein” value by setting is: (input ligand: FMN 200 uM) 141 nM; (input ligand: none) 64.3 nM.

Consider “GCAGCUAAUGCAGGAUAUCAGCACGUGUAGUGCUGAGAAGGGCACAUGAGGAUACCCACUGUGAUCAAUUAAUAUUAAUGCUGC [salish99#hingeEx3_55-58_002] (puzzle (switch architecture): Exclusion NG 1)”, for which the “apparent KD of MS2 coat protein” value reads like this: (input ligand: FMN 200 uM) 18.4 nM; (input ligand: none) 50.2 nM. Turning to “GGAAUAAAUGCAGGAUAUACGUGGAAAGCCCUCAACAUGAGGAUCACCCAUGUAGAAGGGCAUCUCCCGACCGAAGCGGAUCUC [Laisraus] (puzzle (switch architecture): Small Loop Exclusion NG 1)”, the “apparent KD of MS2 coat protein” value (input ligand: FMN 200 uM) was 4.83 nM.

As to “GGAGAUACAUGAGGAUCACCCAUGUAGGAUAUCGGGCCCAUAUCCGGCGAAAGCCGGAUAUGGGCCGAGAAGGGCGUACACACC [#LOL-6] (puzzle (switch architecture): Small Loop Exclusion NG 3)”, the “apparent KD of MS2 coat protein” value was found to be 7.58 nM (input ligand: FMN 200 uM) and 8.68 nM (input ligand: none). In the case of “GGUACUCAAAGAGUACCAAUACGAACAUGAGGAUCACCCAUGUAGGAUAUGCUACUCAAAGAGUAGCAGAAGGACAUGUGUCUA [jl-ex3-3.01 #GC_VS_GU_SWITCHING] (puzzle (switch architecture): Exclusion NG 3)”, the “apparent KD of MS2 coat protein” value reads like this: (input ligand: FMN 200 uM) 55.5 nM; (input ligand: none) 13.9 nM.

For “GGUCGACUUCAAGGAUAUGGACUGCUUUGCAGUCCAGAAGGUGAGGAUCACCCACCUACGGUCAGGUUUCUGACCGAUCGACCU [#AddUracilToBrourdLoops 4 - Jieux - Exclusion NG1] (puzzle (switch architecture): Exclusion NG 1)”, the “apparent KD of MS2 coat protein” value by setting is: (input ligand: FMN 200 uM) 8.62 nM; (input ligand: none) 7.94 nM. On the same counts, the results for “GUCGGAAACGACAAGUCAGCUCGUGAGGAUAUACAUAAAUUAAAGAUCACAUGAGGAUCACCCAUGUAGAAGGCACGAGCUGAU [#StaticStemDeletion - ENG2/2-A2] (puzzle (switch architecture): Small Loop Exclusion NG 3)” are 455 nM and 195 nM. Consider “GUGCUUGUCGAAGGAUAUGGUUACAUGAGGAUCACCCAUGUUAUGCUUGGUUACUUGUUUAGUUUCCAGAAGGUCGAUUAGUUG [salish99_ExNG2_001 #Hinge] (puzzle (switch architecture): Exclusion NG 2)”, for which the “apparent KD of MS2 coat protein” value is, setting by setting: (input ligand: FMN 200 uM) 55.7 nM; (input ligand: none) 23 nM.

With “UAUAACGAAAGAGGAUAUAUCGGCCGUCUACGGAUAGAAGGCUUUCGCUAUGGCACUGAUGAUCUACAUGAGGAUCACCCAUGU [EternaBot731] (puzzle (switch architecture): Exclusion NG 1)”, for the setting “input ligand: FMN 200 uM”, the “apparent KD of MS2 coat protein” value came out at 7.18 nM. Consider “UAUUCUUUGUUAGGAUAUGGGCCCACCCACCCACAAAGUGGGUGGGUGGGCCCAGAAGGAACAUGAGGAUCACCCAUGUAGGAA [#Aaaddddeeeeeeennnniiiinneeeee!] (puzzle (switch architecture): Small Loop Exclusion NG 1)”, for which the “apparent KD of MS2 coat protein” value runs as follows: (input ligand: FMN 200 uM) 53.1 nM; (input ligand: none) 11.7 nM. Turning to “UAUUCUUUGUUAGGAUAUGGGCCCACCCACCCACAAAGUGGGUGGGUGGGCCCAGAAGGAACAUGAGGAUCACCCAUGUAGGCC [#Aaaddddeeeeeeennnniiiinneeeee!] (puzzle (switch architecture): Small Loop Exclusion NG 1)”, the “apparent KD of MS2 coat protein” value is, setting by setting: (input ligand: FMN 200 uM) 88.5 nM; (input ligand: none) 6.16 nM. For “UUAUUAUAUGUAGGAUAUGCAUAUUAUUACUGUGCAGAAGGACAUGAGGAUCACCCAUGUAUAUUAUUAUUAUAUAUUAUAUAU (puzzle (switch architecture): Exclusion NG 1)”, the “apparent KD of MS2 coat protein” value turned out to be 20.6 nM (input ligand: FMN 200 uM) and 17.2 nM (input ligand: none).
